B1: human ACKR4-EYFP [human] / fluorescently labeled human CCL19^Dy649P1 [modified: Dy649P1 (as CoA conjugate) attached site-specifically to the S6-tag by the phosphopantetheinyl transferase Sfp; Dy649P1 (as CoA conjugate) … (parent)
chain 1: GTNDAEDCCLSVTQKPIPGYIVRNFHYLLIKDGCRVPAVVFTTLRGRQLCAPPDQPWVERIIQRLQRTSAKMKRRSS
chain 2: MALEQNQSTDYYYEENEMNGTYDYSQYELICIKEDVREFAKVFLPVFLTIVFVIGLAGNSMVVAIYAYYKKQRTKTDVYILNLAVADLLLLFTLPFWAVNAVHGWVLGKIMCKITSALYTLNFVSGMQFLACISIDRYVAVTKVPSQSGVGKPCWIICFCVWMAAILLSIPQLVFYTVNDNARCIPIFPRYLGTSMKALIQMLEICIGFVVPFLIMGVCYFITARTLMKMPNIKISRPLKVLLTVVIVFIVTQLPYNIVKFCRAIDIIYSLITSCNMSKRMDIAIQVTESIALFHSCLNPILYVFMGASFKNYVMKVAKKYGSWRRQRQSVEEFPFDSEGPTEPTSTFSI

The variants in this test derive from B1. Kind of test: flow cytometry on cells. Particulars: with fluorescently labeled human CCL19^Dy649P1 [modified: Dy649P1 (as CoA conjugate) attached site-specifically to the S6-tag by the phosphopantetheinyl transferase; 25 nM CCL19Dy649P1 at 8°C; HeLa cells; read off a plot.
Turning to chain 2 MALEQNQSTDYYYEENEMNGTYDYSQYELICIKEDVREFAKVFLPVFLTIVFVIGLAGNSMVVAIYAYYKKQRTKTDVYILNLAVADLLLLFTLPFWAVNAVHGWVLGKIMCKITSALYTLNFVSGMQFLACISIDRYVAVTKVPSQSGVGKPCWIICFCVWMAAILLSIPQLVFYTVNDNARCIPIFPRYLGTSMKALIQMLEICIGFVVPFLIMGVCYFITARTLMKMPNIKISRPLKVLLTVVIVFIVTQLPYNIVKFCRAIDIIYSLITSCNMSKRMDIAIQVTESIALFHSCLNPILYVFMGASFKNYVMKVAKKYGAWRRQRQSVEEFPFDSEGPTEPTSTFSI [chain 2 S323A], the percent of parent is 87 % of wt.
To chain 2 MALEQNQSTDYYYEENEMNGTYDYSQYELICIKEDVREFAKVFLPVFLTIVFVIGLAGNSMVVAIYAYYKKQRTKTDVYILNLAVADLLLLFTLPFWAVNAVHGWVLGKIMCKITSALYTLNFVSGMQFLACISIDRYVAVAKVPSQSGVGKPCWIICFCVWMAAILLSIPQLVFYTVNDNARCIPIFPRYLGTSMKALIQMLEICIGFVVPFLIMGVCYFITARALMKMPNIKISRPLKVLLTVVIVFIVTQLPYNIVKFCRAIDIIYSLITSCNMSKRMDIAIQVTESIALFHSCLNPILYVFMGAAFKNYVMKVAKKYGAWRRQRQAVEEFPFDSEGPTEPTSTFSI [chain 2 T142A T226A S309A S323A S330A] belongs 110 % of wt; to chain 2 MALEQNQSTDYYYEENEMNGTYDYSQYELICIKEDVREFAKVFLPVFLTIVFVIGLAGNSMVVAIYAYYKKQRTKTDVYILNLAVADLLLLFTLPFWAVNAVHGWVLGKIMCKITSALYTLNFVSGMQFLACISIDRYVAVAKVPSQSGVGKPCWIICFCVWMAAILLSIPQLVFYTVNDNARCIPIFPRYLGTSMKALIQMLEICIGFVVPFLIMGVCYFITARTLMKMPNIKISRPLKVLLTVVIVFIVTQLPYNIVKFCRAIDIIYSLITSCNMSKRMDIAIQVTESIALFHSCLNPILYVFMGASFKNYVMKVAKKYGSWRRQRQSVEEFPFDSEGPTEPTSTFSI [chain 2 T142A], 90 % of wt; to chain 2 MALEQNQSTDYYYEENEMNGTYDYSQYELICIKEDVREFAKVFLPVFLTIVFVIGLAGNSMVVAIYAFYKKQRTKTDVYILNLAVADLLLLFTLPFWAVNAVHGWVLGKIMCKITSALYTLNFVSGMQFLACISIDRYVAVTKVPSQSGVGKPCWIICFCVWMAAILLSIPQLVFYTVNDNARCIPIFPRYLGTSMKALIQMLEICIGFVVPFLIMGVCYFITARTLMKMPNIKISRPLKVLLTVVIVFIVTQLPYNIVKFCRAIDIIYSLITSCNMSKRMDIAIQVTESIALFHSCLNPILYVFMGASFKNYVMKVAKKYGSWRRQRQSVEEFPFDSEGPTEPTSTFSI [chain 2 Y68F], 93 % of wt.
As for chain 2 MALEQNQSTDYYYEENEMNGTYDYSQYELICIKEDVREFAKVFLPVFLTIVFVIGLAGNSMVVAIYAYYKKQRTKTDVYILNLAVADLLLLFTLPFWAVNAVHGWVLGKIMCKITSALYTLNFVSGMQFLACISIDRYVAVTKVPSQSGVGKPCWIICFCVWMAAILLSIPQLVFYTVNDNARCIPIFPRYLGTSMKALIQMLEICIGFVVPFLIMGVCYFITARTLMKMPNIKISRPLKVLLTVVIVFIVTQLPYNIVKFCRAIDIIYSLITSCNMSKRMDIAIQVTESIALFHSCLNPILYVFMGAAFKNYVMKVAKKYGAWRRQRQAVEEFPFDSEGPTEPTSTFSI [chain 2 S309A S323A S330A], the percent of parent is 120 % of wt.
Take chain 2 MALEQNQSTDYYYEENEMNGTYDYSQYELICIKEDVREFAKVFLPVFLTIVFVIGLAGNSMVVAIYAYYKKQRTKTDVYILNLAVADLLLLFTLPFWAVNAVHGWVLGKIMCKITSALYTLNFVSGMQFLACISIDRYVAVTKVPAQSGVGKPCWIICFCVWMAAILLSIPQLVFYTVNDNARCIPIFPRYLGTSMKALIQMLEICIGFVVPFLIMGVCYFITARTLMKMPNIKISRPLKVLLTVVIVFIVTQLPYNIVKFCRAIDIIYSLITSCNMSKRMDIAIQVTESIALFHSCLNPILYVFMGASFKNYVMKVAKKYGSWRRQRQSVEEFPFDSEGPTEPTSTFSI [chain 2 S146A]: the percent of parent was 85 % of wt.
For chain 2 MALEQNQSTDYYYEENEMNGTYDYSQYELICIKEDVREFAKVFLPVFLTIVFVIGLAGNSMVVAIYAYYKKQRTKTDVYILNLAVADLLLLFTLPFWAVNAVHGWVLGKIMCKITSALYTLNFVSGMQFLACISIDRYVAVTKVPSQSGVGKPCWIICFCVWMAAILLSIPQLVFYTVNDNARCIPIFPRYLGTSMKALIQMLEICIGFVVPFLIMGVCYFITARTLMKMPNIKIARPLKVLLTVVIVFIVTQLPYNIVKFCRAIDIIYSLITSCNMSKRMDIAIQVTESIALFHSCLNPILYVFMGASFKNYVMKVAKKYGSWRRQRQSVEEFPFDSEGPTEPTSTFSI [chain 2 S236A], the percent of parent was 90 % of wt.
As to chain 2 MALEQNQSTDYYYEENEMNGTYDYSQYELICIKEDVREFAKVFLPVFLTIVFVIGLAGNSMVVAIYAYYKKQRTKTDVYILNLAVADLLLLFTLPFWAVNAVHGWVLGKIMCKITSALYTLNFVSGMQFLACISIDRYVAVTKVPSQSGVGKPCWIICFCVWMAAILLSIPQLVFYTVNDNARCIPIFPRYLGTSMKALIQMLEICIGFVVPFLIMGVCYFITARTLMKMPNIKISRPLKVLLTVVIVFIVTQLPYNIVKFCRAIDIIYSLITSCNMSKRMDIAIQVTESIALFHSCLNPILYVFMGASFKNYVMKVAKKYGSWRRQRQAVEEFPFDSEGPTEPTSTFSI [chain 2 S330A], the percent of parent was 83 % of wt.
To chain 2 MALEQNQSTDYYYEENEMNGTYDYSQYELICIKEDVREFAKVFLPVFLTIVFVIGLAGNSMVVAIYAYYKKQRTKTDVYILNLAVADLLLLFTLPFWAVNAVHGWVLGKIMCKITSALYTLNFVSGMQFLACISIDRYVAVAKVPSQSGVGKPCWIICFCVWMAAILLSIPQLVFYTVNDNARCIPIFPRYLGTSMKALIQMLEICIGFVVPFLIMGVCYFITARALMKMPNIKISRPLKVLLTVVIVFIVTQLPYNIVKFCRAIDIIYSLITSCNMSKRMDIAIQVTESIALFHSCLNPILYVFMGASFKNYVMKVAKKYGSWRRQRQSVEEFPFDSEGPTEPTSTFSI [chain 2 T142A T226A] belongs 90 % of wt.
For the variant chain 2 MALEQNQSTDYYYEENEMNGTYDYSQYELICIKEDVREFAKVFLPVFLTIVFVIGLAGNSMVVAIYAYYKKQRTKTDVYILNLAVADLLLLFTLPFWAVNAVHGWVLGKIMCKITSALYTLNFVSGMQFLACISIDRYVAVTKVPSQSGVGKPCWIICFCVWMAAILLSIPQLVFYTVNDNARCIPIFPRYLGTSMKALIQMLEICIGFVVPFLIMGVCYFITARTLMKMPNIKISRPLKVLLTVVIVFIVTQLPYNIVKFCRAIDIIYSLITSCNMSKRMDIAIQVTESIALFHSCLNPILYVFMGAAFKNYVMKVAKKYGSWRRQRQSVEEFPFDSEGPTEPTSTFSI [chain 2 S309A], the percent of parent was 110 % of wt.
To chain 2 MALEQNQSTDYYYEENEMNGTYDYSQYELICIKEDVREFAKVFLPVFLTIVFVIGLAGNSMVVAIYAYYKKQRTKTDVYILNLAVADLLLLFTLPFWAVNAVHGWVLGKIMCKITSALYTLNFVSGMQFLACISIDRYVAVTKVPSQSGVGKPCWIICFCVWMAAILLSIPQLVFYTVNDNARCIPIFPRYLGTSMKALIQMLEICIGFVVPFLIMGVCYFITARALMKMPNIKISRPLKVLLTVVIVFIVTQLPYNIVKFCRAIDIIYSLITSCNMSKRMDIAIQVTESIALFHSCLNPILYVFMGASFKNYVMKVAKKYGSWRRQRQSVEEFPFDSEGPTEPTSTFSI [chain 2 T226A] belongs 83 % of wt.
The figure for chain 2 MALEQNQSTDYYYEENEMNGTYDYSQYELICIKEDVREFAKVFLPVFLTIVFVIGLAGNSMVVAIYAYYKKQRTKTDVYILNLAVADLLLLFTLPFWAVNAVHGWVLGKIMCKITSALYTLNFVSGMQFLACISIDRYVAVTKVPSQAGVGKPCWIICFCVWMAAILLSIPQLVFYTVNDNARCIPIFPRYLGTSMKALIQMLEICIGFVVPFLIMGVCYFITARTLMKMPNIKISRPLKVLLTVVIVFIVTQLPYNIVKFCRAIDIIYSLITSCNMSKRMDIAIQVTESIALFHSCLNPILYVFMGASFKNYVMKVAKKYGSWRRQRQSVEEFPFDSEGPTEPTSTFSI [chain 2 S148A] is 85 % of wt; for chain 2 MALEQNQSTDYYYEENEMNGTYDYSQYELICIKEDVREFAKVFLPVFLTIVFVIGLAGNSMVVAIYAYYKKQRTKTDVFILNLAVADLLLLFTLPFWAVNAVHGWVLGKIMCKITSALYTLNFVSGMQFLACISIDRYVAVTKVPSQSGVGKPCWIICFCVWMAAILLSIPQLVFYTVNDNARCIPIFPRYLGTSMKALIQMLEICIGFVVPFLIMGVCYFITARTLMKMPNIKISRPLKVLLTVVIVFIVTQLPYNIVKFCRAIDIIYSLITSCNMSKRMDIAIQVTESIALFHSCLNPILYVFMGASFKNYVMKVAKKYGSWRRQRQSVEEFPFDSEGPTEPTSTFSI [chain 2 Y79F] it is 110 % of wt; for chain 2 MALEQNQSTDYYYEENEMNGTYDYSQYELICIKEDVREFAKVFLPVFLTIVFVIGLAGNSMVVAIYAYYKKQRTKTDVYILNLAVADLLLLFTLPFWAVNAVHGWVLGKIMCKITSALYTLNFVSGMQFLACISIDRFVAVTKVPSQSGVGKPCWIICFCVWMAAILLSIPQLVFYTVNDNARCIPIFPRYLGTSMKALIQMLEICIGFVVPFLIMGVCYFITARTLMKMPNIKISRPLKVLLTVVIVFIVTQLPYNIVKFCRAIDIIYSLITSCNMSKRMDIAIQVTESIALFHSCLNPILYVFMGASFKNYVMKVAKKYGSWRRQRQSVEEFPFDSEGPTEPTSTFSI [chain 2 Y138F] it is 72 % of wt.

The record behind these values is publication PMC7188906.
